Experimental data taken from the supplement of paper PMC10567573.

B1: LYSMD4 (parent)
chain: LLQRELAQEDSLNKLALQYGCKVA

Variants of: B1
Test: protein stability index of a GFP-peptide fusion (GPS, HEK-293T) (PSI 1-6); higher = more stable
Details: c terminus: a fixed tail appended
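Further: lentivirally expressed fusions sorted by FACS into six bins by GFP to DsRed ratio, PSI derived from sequencing read proportions per bin multiplied by bin number.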

Variant | protein stability index
LLQRELAQEYSLNKLALQYGCKVA [D10Y] | 1.82
LLQRELAQEPSLNKLALQYGCKVA [D10P] | 1.86
LLQRELAQEGSLNKLALQYGCKVA [D10G] | 1.9
LLQRELAQEFSLNKLALQYGCKVA [D10F] | 1.46
LLQRELAQETSLNKLALQYGCKVA [D10T] | 1.92
LLQRELAQERSLNKLALQYGCKVA [D10R] | 1.68
LLQRELAQELSLNKLALQYGCKVA [D10L] | 2.1
LLQRELAQEISLNKLALQYGCKVA [D10I] | 1.04
LLQRELAQEHSLNKLALQYGCKVA [D10H] | 1.22
LLQRELAQEQSLNKLALQYGCKVA [D10Q] | 2.67
LLQRELAQEKSLNKLALQYGCKVA [D10K] | 1.86
LLQRELAQEESLNKLALQYGCKVA [D10E] | 1.83
LLQRELAQEDSLWKLALQYGCKVA [N13W] | 1.8
LLQRELAQEDSLPKLALQYGCKVA [N13P] | 1.95
LLQRELAQEDSLKKLALQYGCKVA [N13K] | 1.94
LLQRELAQEDSLFKLALQYGCKVA [N13F] | 1.65
LLQRELAQEDSLCKLALQYGCKVA [N13C] | 2.49
LLQRELAQEDSLTKLALQYGCKVA [N13T] | 1.3
LLQRELAQEDSLGKLALQYGCKVA [N13G] | 1.23
LLQRELAQEDSLEKLALQYGCKVA [N13E] | 1.65
LLQRELAQEDSLQKLALQYGCKVA [N13Q] | 1.38
LLQRELAQEDSLDKLALQYGCKVA [N13D] | 1.03
LLQRELAQEDSLRKLALQYGCKVA [N13R] | 2.23
LLQRELAQEDSLSKLALQYGCKVA [N13S] | 1.84

Variant | protein stability index
LLQRELAQEDSLNRLALQYGCKVA [K14R] | 1
LLQRELAQEDSLNTLALQYGCKVA [K14T] | 1.66
LLQRELAQEDSLNYLALQYGCKVA [K14Y] | 2.06
LLQRELAQEDSLNSLALQYGCKVA [K14S] | 1.75
LLQRELAQEDSLNCLALQYGCKVA [K14C] | 2.37
LLQRELAQEDSLNGLALQYGCKVA [K14G] | 2.91
LLQRELAQEDSLNFLALQYGCKVA [K14F] | 2.4
LLQRELAQEDSLNHLALQYGCKVA [K14H] | 2.07
LLQRELAQEDSLNQLALQYGCKVA [K14Q] | 2.22
LLQRELAQEDSLNNLALQYGCKVA [K14N] | 1.86
LLQRELAQEDSLNWLALQYGCKVA [K14W] | 3.01
LLQRELAQEDSLNDLALQYGCKVA [K14D] | 2.23
LLQRELAQEDALNKLALQYGCKVA [S11A] | 1.76
LLQRELAQEDRLNKLALQYGCKVA [S11R] | 2.65
LLQRELAQEDGLNKLALQYGCKVA [S11G] | 2.25
LLQRELAQEDYLNKLALQYGCKVA [S11Y] | 2.28
LLQRELAQEDKLNKLALQYGCKVA [S11K] | 2.01
LLQRELAQEDDLNKLALQYGCKVA [S11D] | 1.88
LLQRELAQEDILNKLALQYGCKVA [S11I] | 1.04
LLQRELAQEDHLNKLALQYGCKVA [S11H] | 2.01
LLQRELAQEDTLNKLALQYGCKVA [S11T] | 1.38
LLQRELAQEDCLNKLALQYGCKVA [S11C] | 1.79
LLQRELAQEDPLNKLALQYGCKVA [S11P] | 1.48
LLQRELAQEDMLNKLALQYGCKVA [S11M] | 2.39

Variant | protein stability index
LLQRELAQEDSLNKWALQYGCKVA [L15W] | 1.2
LLQRELAQEDSLNKVALQYGCKVA [L15V] | 1.62
LLQRELAQEDSLNKNALQYGCKVA [L15N] | 3.75
LLQRELAQEDSLNKGALQYGCKVA [L15G] | 3.11
LLQRELAQEDSLNKQALQYGCKVA [L15Q] | 3.65
LLQRELAQEDSLNKDALQYGCKVA [L15D] | 4.51
LLQRELAQEDSLNKIALQYGCKVA [L15I] | 2.11
LLQRELAQEDSLNKMALQYGCKVA [L15M] | 2.85
LLQRELAQEDSLNKSALQYGCKVA [L15S] | 2.88
LLQRELAQEDSLNKHALQYGCKVA [L15H] | 2.67
LLQRELAQEDSLNKKALQYGCKVA [L15K] | 3.1
LLQRELAQEDSLNKTALQYGCKVA [L15T] | 2.93
LLQRELAQEDSLNKFALQYGCKVA [L15F] | 1.07
LLQRELAQEDSLNKPALQYGCKVA [L15P] | 3.97
LLQRELAQEDSLNKCALQYGCKVA [L15C] | 2.34
LLQRELAQLDSLNKLALQYGCKVA [E9L] | 3.17
LLQRELAQPDSLNKLALQYGCKVA [E9P] | 1.63
LLQRELAQRDSLNKLALQYGCKVA [E9R] | 1.94
LLQRELAQGDSLNKLALQYGCKVA [E9G] | 1.28
LLQRELAQYDSLNKLALQYGCKVA [E9Y] | 1.9
LLQRELAQQDSLNKLALQYGCKVA [E9Q] | 2.2
LLQRELAQMDSLNKLALQYGCKVA [E9M] | 1.85
LLQRELAQNDSLNKLALQYGCKVA [E9N] | 2.4
LLQRELAQKDSLNKLALQYGCKVA [E9K] | 1.35

Variant | protein stability index
LLQRELAQWDSLNKLALQYGCKVA [E9W] | 1.02
LLQRELAQHDSLNKLALQYGCKVA [E9H] | 2.54
LLQRELAQIDSLNKLALQYGCKVA [E9I] | 2.69
LLQRELAQDDSLNKLALQYGCKVA [E9D] | 2.68
LLQRELAQEDSMNKLALQYGCKVA [L12M] | 1.97
LLQRELAQEDSANKLALQYGCKVA [L12A] | 2.5
LLQRELAQEDSKNKLALQYGCKVA [L12K] | 2.02
LLQRELAQEDSRNKLALQYGCKVA [L12R] | 2.49
LLQRELAQEDSNNKLALQYGCKVA [L12N] | 3.52
LLQRELAQEDSHNKLALQYGCKVA [L12H] | 3.65
LLQRELAQEDSYNKLALQYGCKVA [L12Y] | 2.38
LLQRELAQEDSDNKLALQYGCKVA [L12D] | 4.13
LLQRELAQEDSVNKLALQYGCKVA [L12V] | 2.31
LLQRELAQEDSCNKLALQYGCKVA [L12C] | 1.72
LLQRELAQEDSPNKLALQYGCKVA [L12P] | 3.54
LLQRELAQEDSINKLALQYGCKVA [L12I] | 2.06
LLQRELAQEDSTNKLALQYGCKVA [L12T] | 3.48
LLQRELAQEDSWNKLALQYGCKVA [L12W] | 1.23
LLQRELAQEDSSNKLALQYGCKVA [L12S] | 3.54
LLQRELAQEDSFNKLALQYGCKVA [L12F] | 2.33
LLQRELAQEDSENKLALQYGCKVA [L12E] | 3.83
LLQRELAQEDSGNKLALQYGCKVA [L12G] | 3.39
